These are literature values, as cited in patent US20250341526A1, “NOVEL DYES” (Quantum-Si Incorporated, priority 2024, published 2025).

Residue numbers refer to the chain shown, from its start.

The series concerns amino acid at a terminal position of a polypeptide. The settings on record: Table 2; amino acid at terminal position (phosphotyrosine also internal); inferred from literature and/or demonstrated by the inventors; cited from earlier work.

B1: PS524: amino acid recognition protein, SEQ ID NO: 152 (protein, listed as Drosophila ficusphila)
chain: MVCGKVFKNGEPTYSCRECGVDPTCVLCVNCFKRSAHRFHKYKMSTSGGGGCCDCGDDEAWKKDHYCQLHLA
For the molecule B1, the “Binding Pref.” value is “K, R, H”.

B2: PS531: amino acid recognition protein, SEQ ID NO: 159 (protein, listed as Musca domestica)
chain: B1 chain with N9I, V21M, P23Q, R34Q, F39Y, D58E, Q68E, L69E, A72R
Regarding B2, the “Binding Pref.” value is reported as “K, R, H”.

B3: PS527: amino acid recognition protein, SEQ ID NO: 155 (protein, listed as Mizuhopecten yessoensis)
chain: MLCGKVFKYGEPTYSCRDCANDPTCVLCIDCFQKSAHKKHRYKMSTSGGGGYCDCGDSEAWKTAPFCSNHKA
As for B3, the “Binding Pref.” value was “K, R, H”.

B4: PS521: amino acid recognition protein, SEQ ID NO: 149 (protein)
chain: MLCGRVFRSGEPTYSCRDCAVDPTCVLCIDCFNNGAHRKHKYRMSTSSGGGYCDCGDKEAWKTDPLCEIHRK
modifications: Lingula anatine
Regarding B4, the “Binding Pref.” value is given as “K, R, H”.

B5: PS543: amino acid recognition protein, SEQ ID NO: 172 (protein, listed as Trichinella spiralis)
chain: MKCNRQLICGEPTYCCLDCACDQTCIFCHACFQSSEHKNHRYSMSTSEGSGTCDCGDKEAWKSNYYCLNHKP
In the case of B5, the “Binding Pref.” value is “K, R, H”.

B6: PS542: amino acid recognition protein, SEQ ID NO: 171 (protein, listed as Trichuris suis)
chain: MRCNHVFANGEATYSCRGCAADPTCVLCASCFELSAHKEHKYMITTSSGTGYCDCGDPEAWKADPFCQQHQP
B6: the “Binding Pref.” value is reported as “K, R, H”.

B7: PS519: amino acid recognition protein, SEQ ID NO: 147 (protein, listed as Manduca sexta)
chain: MLCGRVFKQGEPAYSCRECGMDNTCVLCVECFKVSAHRHHKYKMGQSGGGGCCDCGDTEAWKRDPFCELHAA
For the molecule B7, the “Binding Pref.” value is “K, R, H”.

B8: Homo sapiens UBR2: amino acid recognition protein, SEQ ID NO: 174 (protein, listed as Homo sapiens)
chain: MGPLGSLCGRVFKVGEPTYSCRDCAVDPTCVLCMECFLGSIHRDHRYRMTTSGGGGFCDCGDTEAWKEGPYCQKHE
Consider B8, for which the “Binding Pref.” value was “K, R, H”.

B9: PS520: amino acid recognition protein, SEQ ID NO: 148 (protein, listed as Monopterus albus)
chain: MLCGRVFKEGETVYSCRDCAIDPTCVLCMDCFQDSVHKSHRYKMHASSGGGFCDCGDVEAWKIGPCCSKHDP
Take B9: the “Binding Pref.” value is listed as “K, R, H”.

B10: PS526: amino acid recognition protein, SEQ ID NO: 154 (protein, listed as Maylandia zebra)
chain: B9 chain with C66Y
For B10, the “Binding Pref.” value is reported as “K, R, H”.

B11: PS522: amino acid recognition protein, SEQ ID NO: 150 (protein, listed as Vombatus ursinus)
chain: MLCGKVFKSGETTYSCRDCAIDPTCVLCMNCFQSSVHKNHRYKMHTSTGGGFCDCGDTEAWKTGPFCTIHEP
For B11, the “Binding Pref.” value was “K, R, H”.

B12: PS529: amino acid recognition protein, SEQ ID NO: 157 (protein)
chain: B11 chain with S9G, N30D, S34N, V36I, F66L, T68A, I69N
modifications: Chelonia mydas
Regarding B12, the “Binding Pref.” value is recorded as “K, R, H”.

B13: PS525: amino acid recognition protein, SEQ ID NO: 153 (protein, listed as Mus musculus)
chain: B11 chain with N30D, T68V, I69D
For B13, the “Binding Pref.” value is recorded as “K, R, H”.

B14: PS538: amino acid recognition protein, SEQ ID NO: 166 (protein, listed as Saccharomyces cerevisiae)
chain: MGDVHKHTGRNCGRKFKIGEPLYRCHECGCDDTCVLCIHCFNPKDHVNHHVCTDICTEFTSGICDCGDEEAWNSPLHCKAEEQ
For the molecule B14, the “Binding Pref.” value is reported as “K, R, H”.

B15: PS25: amino acid recognition protein, SEQ ID NO: 167 (protein, listed as Saccharomyces cerevisiae)
chain: B14 chain with D3S
As to B15, the “Binding Pref.” value was “K, R, H”.

B16: PS536: amino acid recognition protein, SEQ ID NO: 164 (protein, listed as Aphis gossypii)
chain: MVCGRVFKMGEPTYNCRECGMDSTCVLCVDCFKRSPHKNHKYKMGTSYGGGCCDCGDVEAWKHDPYCQTHKL
With B16, the “Binding Pref.” value was “K, R, H”.

B17: PS532: amino acid recognition protein, SEQ ID NO: 160 (protein, listed as Schizosaccharomyces cryophilus)
chain: MSCGRIFKKGEVFYRCKTCSVDSNSALCVKCFRATDHHGHETSFTISAGSGGCCDCGNSAAWIRDMPCKIHNR
For the molecule B17, the “Binding Pref.” value is reported as “K, R, H”.

B18: PS544: amino acid recognition protein, SEQ ID NO: 173 (protein, listed as Homo sapiens)
chain: MGPLGSLCGRVFKSGETTYSCRDCAIDPTCVLCMDCFQDSVHKNHRYKMHTSTGGGFCDCGDTEAWKTGPFCVNHEP
Turning to B18, the “Binding Pref.” value is reported as “K, R, H”.

B19: PS539: amino acid recognition protein, SEQ ID NO: 168 (protein, listed as Kazachstania africana)
chain: MQTSFTHKGRNCGRKFKVGEPLYRCHECGFDDTCVLCIHCFNPADHENHHIYTDICNDFTSGICDCGDTEAWNGDLHCKAEEI
Turning to B19, the “Binding Pref.” value is reported as “K, R, H”.

B20: PS617: amino acid recognition protein, SEQ ID NO: 177 (protein, listed as Eremothecium sinecaudum)
chain: MPKEHRGTSCNKHCQPTETVYYCFDCTKNPLYEICEECFDADKHLGHRWTSKVVSRPEGKICHCGDPSGLTDPENGYECKN
Consider B20, for which the “Binding Pref.” value is listed as “K, R, H”.

B21: PS528: amino acid recognition protein, SEQ ID NO: 156 (protein, listed as Kluyveromyces lactis)
chain: MHSKFNHAGRICGAKFRVGEPIYRCKECSFDDTCVLCVNCFNPKDHVGHHVYTSICTEFNNGICDCGDKEAWNHELNCKGAED
For B21, the “Binding Pref.” value was “K, R, H”.

B22: PS537: amino acid recognition protein, SEQ ID NO: 165 (protein, listed as Aedes aegypti)
chain: MVCGRVFKIGEPTYSCRECSMDPTCVLCSSCFKKSSHRLHKYKMSTSGGGGCCDCGDHEAWKRDPSCEEHAV
Take B22: the “Binding Pref.” value was “K, R, H”.

B23: PS540: amino acid recognition protein, SEQ ID NO: 169 (protein, listed as Clathrospora elynae)
chain: MPCGHIFKNGEATYRCKTCTADDTCVLCARCFDASDHEGHQVFVSVSPGNSGCCDCGDDEAWVRPVHCNMHSA
For the molecule B23, the “Binding Pref.” value was “K, R, H”.

B24: PS615: amino acid recognition protein, SEQ ID NO: 175 (protein, listed as Kluyveromyces marxianus)
chain: MVNEHRGSQCSKQCHGTETVYYCFDCTKNPLYEICEECFDETQHMGHRYTSRVVTRPEGKVCHCGDISGYNNPEKAFQCKI
With B24, the “Binding Pref.” value was “K, R, H”.

B25: PS616: amino acid recognition protein, SEQ ID NO: 176 (protein, listed as Kluyveromyces lactis)
chain: B24 chain with V2H, E4D, E37D, T42S, M45I, G69S, N72D, E74K, K80R
Regarding B25, the “Binding Pref.” value is reported as “K, R, H”.

B26: PS530: amino acid recognition protein, SEQ ID NO: 158 (protein, listed as Acropora millepora)
chain: MLCGKVFKVGEPTYSCRDCGYDNTCVLCINCFQKSIHKNHHYKMNTSGGGGVCDCGDVEAWKEGEACEIHQQ
For B26, the “Binding Pref.” value is given as “K, R, H”.

B27: PS541: amino acid recognition protein, SEQ ID NO: 170 (protein)
chain: MRCGHIFRAGEATYRCITCAADDTCVLCSRCFDASDHTGHQYQISLSSGNCGCCDCGDEEAWRLPLFCAIHTD
modifications: Aspergillus neoniger
For the molecule B27, the “Binding Pref.” value is “K, R, H”.

B28: PS523: amino acid recognition protein, SEQ ID NO: 151 (protein, listed as Saccharomycetaceae sp.)
chain: MAKSHRHTGRNCGRAFQPGEPLYRCQECAYDDTCVLCISCFNPDDHVNHHVSTHICNELHDGICDCGDAEAWNVPLHCKAEED
As to B28, the “Binding Pref.” value was “K, R, H”.

B29: PS535: amino acid recognition protein, SEQ ID NO: 163 (protein, listed as Mus musculus)
chain: MLCGRVFKVGEPTYSCRDCAVDPTCVLCMECFLGSIHRDHRYRMTTSGGGGFCDCGDTEAWKEGPYCQKHKL
With B29, the “Binding Pref.” value was “K, R, H”.

B30: PS533: amino acid recognition protein, SEQ ID NO: 161 (protein, listed as Contarinia nasturtii)
chain: MVCGRVFKMNEPFYSCRECGMDPTCVLCVNCFKQSAHRHHKYKMGTSAGGGCCDCGDNEAWKQDHYCDEHTK
B30: the “Binding Pref.” value was “K, R, H”.

B31: PS534: amino acid recognition protein, SEQ ID NO: 162 (protein)
chain: MKCGHIFRKGEVFYRCKTCSVDSNSALCVKCFRATSHKDHETSFTVSAGSGGCCDCGNAAAWIGDVSCKIHSH
modifications: Schizosaccharomyces pombe
For B31, the “Binding Pref.” value was “K, R, H”.
